Experimental data taken from paper PMC12355757, “TRIM6 ablation reverses ICB resistance in MSS gastric cancer by unleashing cGAS-STING-dependent antitumor immunity” (Journal of Experimental & Clinical Cancer Research : CR, 2025).

Target: T1, Recombinant His-cGAS (human, UniProt Q8N884 1-522)
T1 construct: cGAS cloned into the pET28a plasmid for the GST pull-down; also called purified His-cGAS
Assay: pull-down; purified His-cGAS incubated with GST, GST-TRIM6 or its truncated mutants on GST-tag resin overnight at 4 °C; 50 mM Tris pH 8.0, 200 mM NaCl, 1 mM EDTA, 1% NP-40, 1 mM DTT, 1 mM MgCl2; immunoblot with anti-His or anti-cGAS
Settings: both partners purified

T1 sequence (Q8N884 whole entry): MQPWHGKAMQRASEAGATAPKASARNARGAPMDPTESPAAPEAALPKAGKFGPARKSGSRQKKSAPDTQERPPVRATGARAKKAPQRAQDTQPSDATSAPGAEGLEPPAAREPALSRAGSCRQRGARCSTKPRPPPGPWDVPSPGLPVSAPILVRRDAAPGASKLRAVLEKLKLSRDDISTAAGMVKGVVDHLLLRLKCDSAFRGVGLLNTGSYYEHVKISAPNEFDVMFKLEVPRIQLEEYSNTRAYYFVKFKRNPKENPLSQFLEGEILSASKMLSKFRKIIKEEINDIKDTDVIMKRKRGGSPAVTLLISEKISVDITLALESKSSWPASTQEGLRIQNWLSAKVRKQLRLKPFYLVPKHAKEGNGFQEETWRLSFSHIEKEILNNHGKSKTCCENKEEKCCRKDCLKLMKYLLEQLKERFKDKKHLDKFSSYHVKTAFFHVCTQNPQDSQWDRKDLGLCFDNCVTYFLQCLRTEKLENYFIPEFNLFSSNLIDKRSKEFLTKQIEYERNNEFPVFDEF

B1: GST-TRIM6 (full length) (enzyme, human, UniProt Q9C030-2 1-516, looked up)
chain: MCGSERILQAGNILEIRVGQAGARRVATMTSPVLVDIREEVTCPICLELLTEPLSIDCGHSFCQACITPNGRESVIGQEGERSCPVCQTSYQPGNLRPNRHLANIVRRLREVVLGPGKQLKAVLCADHGEKLQLFCQEDGKVICWLCERSQEHRGHHTFLVEEVAQEYQEKFQESLKKLKNEEQEAEKLTAFIREKKTSWKNQMEPERCRIQTEFNQLRNILDRVEQRELKKLEQEEKKGLRIIEEAENDLVHQTQSLRELISDLERRCQGSTMELLQDVSDVTERSEFWTLRKPEALPTKLRSMFRAPDLKRMLRVCRELTDVQSYWVDVTLNPHTANLNLVLAKNRRQVRFVGAKVSGPSCLEKHYDCSVLGSQHFSSGKHYWEVDVAKKTAWILGVCSNSLGPTFSFNHFAQNHSAYSRYQPQSGYWVIGLQHNHEYRAYEDSSPSLLLSMTVPPRRVGVFLDYEAGTVSFYNVTNHGFPIYTFSKYYFPTTLCPYFNPCNCVIPMTLRRPSS
notes: TRIM6, human, full-length, cloned into the pGEX-6T-1 vector; also called full-length TRIM6
**Q.** Does B1 bind?
**A.** binds
